Experimental data reported in patent publication US9228015B2, “Nogo receptor antagonists and methods of increasing neurite outgrowth” (Biogen Idec MA Inc., priority 2006, dated 2016).

B1: sNogoR344-Fc: fusion protein of residues 26-344 of rat Nogo receptor-1 and hinge and Fc region of rat IgG1 (protein)
chain: PCPGACVCYNEPKVTTSRPQQGLQAVPAGIPASSQRIFLHGNRISYVPAASFQSCRNLTILWLHSNALAGIDAAAFTGLTLLEQLDLSDNAQLRVVDPTTFRGLGHLHTLHLDRCGLQELGPGLFRGLAALQYLYLQDNNLQALPDNTFRDLGNLTHLFLHGNRIPSVPEHAFRGLHSLDRLLLHQNHVARVHPHAFRDLGRLMTLYLFANNLSMLPAEVLVPLRSLQYLRLNDNPWVCDCRARPLWAWLQKFRGSSSGVPSNLPQRLAGRDLKRLATSDLEGCAVASGPFRPFQTNQLTDEELLGLPKCCQPDAADKA
modifications: left off: a dimerising Fc or GST
notes: fusion protein of residues 26-344 of rat Nogo receptor-1 and hinge and Fc region of rat IgG1
B2: sNogoR310: soluble Nogo receptor-1 polypeptide, residues 26-310 of SEQ ID NOs: 7 and 9 or 27-310 of SEQ ID NO: 9; mouse form in transgenic mice (protein, listed as Homo sapiens)
chain: PCPGACVCYNEPKVTTSCPQQGLQAVPVGIPAASQRIFLHGNRISHVPAASFRACRNLTILWLHSNVLARIDAAAFTGLALLEQLDLSDNAQLRSVDPATFHGLGRLHTLHLDRCGLQELGPGLFRGLAALQYLYLQDNALQALPDDTFRDLGNLTHLFLHGNRISSVPERAFRGLHSLDRLLLHQNRVAHVHPHAFRDLGRLMTLYLFANNLSALPTEALAPLRALQYLRLNDNPWVCDCRARPLWAWLQKFRGSSSEVPCSLPQRLAGRDLKRLAANDLQGCA

Key:
[1] = system: Neuroscreen cells (sub-clone of PC12 cells); assay: Neuro-protection assay, differentiated Neuroscreen cells with or without laminin; assay type: cell-based; conditions: same concentrations, absence of laminin
Protocol: In some experiments, a sub-clone of PC12 cells (Neuroscreen™) was used (Cellomics®). The Neuroscreen™ cells were pre-differentiated for 7 days with 200 ng/ml NGF, detached and replated on 96-well plates pre-coated with poly-D-lysine. In some wells 5 μg/ml laminin was added for 2-3 hours and rinsed before the cells were plated. After 2 days incubation the plates were fixed with 4% paraformaldehyde, stained with rabbit anti-Beta-III-tubulin antibody diluted 1:500 (Covance®) and Hoechst (nuclear stain). The ArrayScan® II was used to quantify neurite outgrowth as in the DRG cells.
(§1) sNogoR344-Fc or rat IgG were added in solution to P6-7 DRG neurons and to differentiated Neuroscreen™ cells at the time of plating.

P6 DRG neurons = assay: Neuro-protection assay, P6-7 rat DRG neurons with or without laminin; assay type: cell-based
Protocol: We also tested the neuro-protective effect of soluble Nogo receptors by performing experiments with cells grown in the presence and absence of laminin. Neuronal cell growth in media without laminin is poor and models neuronal stress conditions.
DRG's were dissected from post-natal day 6-7 rat pups (P6-7), dissociated into single cells and plated on 96-well plates pre-coated with poly-D-lysine as described above. In some wells 2 μg/ml laminin was added for 2-3 hours and rinsed before the cells were plated. After an 18-20 h incubation the plates were fixed with 4% para-formaldehyde, stained with rabbit anti-Beta-III-tubulin antibody diluted 1:500 (Covance®) and anti-HuC/D diluted 1:100 (Molecular Probes), and fluorescent secondary antibodies (Molecular Probes) were added at 1:200 dilution. The ArrayScan® II (Cellomics®) was used to capture 5× digital images and to quantify neurite outgrowth as average neurite outgrowth/neuron per well, by using the Neurite outgrowth application. Nine 5× images from 3 wells/condition were analyzed.
as §1

[2] = system: mice with dorsal over-hemisection injury; assay: gfap::sNogoR310 transgenic mice, dorsal over-hemisection: behavioral tests; assay type: in vivo, mouse
Text: The Basso-Beattie-Bresnahan (BBB) locomotor rating scale (Basso et al., Neurotrauma 13:343-359 (1996)), the inclined plane test and the inclined grid walking test (Li and Strittmatter, J Neurosci. 23:4219-27 (2003)) were monitored in rats and mice after injury. For the inclined plane test, we measured the maximal angle to which a 50 cm×60 cm board could be angled for 5 sec without the mouse sliding off. For inclined grid walking, the mice were trained to climb a wire grid (35 cm long with 2.54 cm squares) at a slope of 45 degrees. The number of instances in which the hindpaw dropped below the grid plane was scored for each excursion from bottom to top. For the rat behavioral testing, BBB locomotor scale, grid walking and footprint analysis were performed. For grid walking, the rats were trained to walk on a wire grid (70 cm long with 2.54 an squares), and the number of instances in which the hindpaw dropped below the grid plane was counted. For footprint analysis, the walking patterns of rat hindpaws were recorded with ink during a continuous locomotion across a 90 cm runway, and stride length on each side and stride width were calculated (Metz et al., Brain Res. 883:165-177 (2000)). All of these behavioral tests were performed by at least two individuals. Throughout the surgery, behavioral testing and histologic analysis, researchers were blind to the identity of the compound in the minipump.
We deeply anesthetized adult female heterozygous transgenic or littermate WT mice (10-16 weeks of age) and performed a complete laminectomy, fully exposing the dorsal part of spinal cord at T6 and T7 levels. We performed a dorsal over-hemisection at T6 with a 30-gauge needle and a pair of microscissors to completely sever the dorsal and dorsolateral corticospinal tracts (CSTs). We passed a marked needle across the dorsal part of the spinal cord several times to assure that the lesion was at a depth of 1.0 mm. We sutured the muscle layers over the laminectomies and closed the skin on the back with surgical staples. […]

[3] = system: mice with dorsal over-hemisection injury; assay: gfap::sNogoR310 transgenic mice, dorsal over-hemisection: axon tracing and serotonin fiber analysis; assay type: in vivo, mouse
Text: We cloned the mouse sNogoR310 cDNA (corresponding to amino acids 1-310 of the Nogo receptor-1) into the Nod site of the C-3123 vector. In this vector, sNogoR310 expression is under the control of the glial fibrillary acidic protein (gfap) gene regulatory elements, which allow high level expression with enhanced secretion from reactive astrocytes at site of injury. We digested the resulting vector sequentially with AatII and SfiI and isolated the gfap::sNogoR310 construct on a 3.4 kb fragment. We microinjected this fragment into embryos to generate transgenic mice. We verified by PCR that the transgene had integrated and identified five founder lines. We crossed heterozygous males of the two founder lines with the highest expression levels to female C57BL/6J mice. We confirmed that the GFAP-positive cells express and secrete sNogoR310 in heterozygous transgenic mice by Western blot analysis using antibody raised against Nogo receptor-1.
We deeply anesthetized adult female heterozygous transgenic or littermate WT mice (10-16 weeks of age) and performed a complete laminectomy, fully exposing the dorsal part of spinal cord at T6 and T7 levels. We performed a dorsal over-hemisection at T6 with a 30-gauge needle and a pair of microscissors to completely sever the dorsal and dorsolateral corticospinal tracts (CSTs). We passed a marked needle across the dorsal part of the spinal cord several times to assure that the lesion was at a depth of 1.0 mm. We sutured the muscle layers over the laminectomies and closed the skin on the back with surgical staples. To trace the corticospinal tracts, we made a burr hole overlying cerebral cortex on the right side into the skull 14 days after spinal cord injury. We applied the tracer BDA (MW 10,000, 10% in PBS) (Molecular Probes, Eugene, Oreg.) to 4 injection sites at a depth of 0.7 mm from the cortical surface, Four weeks after injury, the mice were perfused transcardially with PBS, followed by 4% paraformaldehyde.
We investigated the integrity of descending corticospinal tracts (CST) by injecting anterograde tracer biotin dextran amine (BDA) into the right motor cortex as described in Li and Strittmatter, J. Neurosci. 23:4219-27 (2003). In littermate WT mice, the prominent dorsal CST (dCST) is tightly bundled rostral to the lesion, and a few dorsolateral CST fibers are visible ipsilaterally. A small number of BDA-labeled short collateral sprouts project into gray matter, particularly in the ventral cord, but the sprouting is largely confined to the side of the cord contralateral to the tracer injection. However, the sections rostral to dorsal hemisection from injured sNogoR310 transgenic mice indicate a quite different BDA labeling pattern. A high density of BDA-labeled CST fibers are observed outside of prominent dCST in all the transgenic mice from line Tg08 or line Tg01. Ectopic fibers extend throughout the gray matter area, and some fibers reach into lateral and dorsolateral white matter. Several fibers (4-12 sprouts per transverse section) are seen on the opposite side of the spinal cord (ipsilateral to the tracer injection site). Micro densitometric measurement of the collateral sprouts indicates approximately a tenfold increase in sprouting density in sNogoR310 transgenic mice. […]

[4] = system: DRG neurons, myelin-mediated inhibition of neurite outgrowth; assay: Neurite outgrowth assay, P3-4 rat DRG neurons, myelin mixed with test protein (Example 10); assay type: cell-based; conditions: mixed with CNS myelin, FIGS. 9-11
Protocol: Lab-Tek® culture slides (4 wells) were coated with 0.1 mg/ml poly-D-lysine (Sigma®). CNS myelin alone or mixed with sNogoR310, sNogoR310-Fc fusion protein, mAb 5B10 or control PBS were separately spotted as 3 μl drops. Fluorescent microspheres (Polysciences) were added to the myelin/PBS to allow later identification of the drops (Grandpre et al., Nature 403:439-444 (2000)). Lab-Tek® slides were then rinsed and coated with 10 μg/ml laminin (Gibco™).
Dorsal root ganglions (DRG's) from P3-4 Sprague Dawley rat pups were dissociated with 1 mg/ml collagenase type 1 (Worthington), triturated with fire-polished Pasteur pipettes pre-plated to enrich in neuronal cells and finally plated at 23,000 cells/well on the pre-coated Labtek culture slides. The culture medium was F12 containing 5% heat inactivated donor horse serum, 5% heat inactivated fetal bovine serum and 50 ng/ml mNGF and incubated at 37° C. and 5% CO2 for 6 hours.
Slides were fixed for 20 minutes with 4% paraformaldehyde containing 20% sucrose and stained for the neuronal marker anti beta-III-tubulin (Covance TUJ1) diluted 1:500. As secondary antibody anti-mouse Alexa Fluor® 594 (Molecular Probes) was diluted 1:300 and slides were coverslipped with Gel/Mount™ (Biømeda™). 5× digital images were acquired with OpenLab™ software and analyzed by using the MetaMorph® software for quantification of neurite outgrowth.

chick neurons = assay: Neurite outgrowth assay using chick neurons; assay type: cell-based
[5] = system: NogoA, NogoB, NogoC, MAG and OM-gp binding to Nogo receptor-1; assay: Soluble Nogo receptors block ligand binding to Nogo receptor-1

| Molecule | neuro-protective effect [1] | neuro-protective effect (P6 DRG neurons; 1 μM and 10 μM, absence of laminin) | quantification of neurite outgrowth (P6 DRG neurons; absence of laminin) | effect on DRG neurons growing on a laminin substrate (P6 DRG neurons; same concentrations, laminin substrate) | sustainable angle on inclined plane ([2]; days 7-28 after injury vs control) | BBB scores ([2]; lines Tg08 and Tg01 vs control, 7-28 days) | inclined grid climbing errors ([2]; post-injury, FIG. 13D) | BDA-labeled regenerating fibers coursing in the rostral-caudal axis ([3]; any level 1-4 mm caudal to the lesion, each transgenic mouse) | fibers on the opposite side of the spinal cord (ipsilateral to the tracer injection site) ([3]; rostral to dorsal hemisection, transgenic mice) | CST sprouting ([3]; secreted from astrocytes in transgenic mice) | total length of serotonin fibers in the ventral horn of caudal spinal cord ([3]; transgenic vs WT group) | increase in collateral sprouting density (micro densitometric measurement) ([3]; transgenic vs WT mice) | protection of DRG neurons from myelin-mediated inhibition of neurite outgrowth [4] | protection in similar assay using chick neurons (chick neurons) | block of binding of NogoA, NogoB, NogoC, MAG and OM-gp to Nogo receptor-1 [5] |
| --- | --- | --- | --- | --- | --- | --- | --- | --- | --- | --- | --- | --- | --- | --- | --- |
| B1 | seen | observed | dose-dependent increase | did not produce any unusual effect |  |  |  |  |  |  |  |  |  |  |  |
| B2 |  |  |  |  | significantly greater | significantly higher | progressive improvement | 5-15 | 4-12 sprouts per transverse section | induces CST sprouting | much greater number | tenfold | protected | protective | block |
